Assays:
Neto1-ΔCUB2-HA = Neto1-ΔCUB2-HA (UniProt Q8R4I7); assay: co-IP
Neto2-ΔCUB2-HA = Neto2-ΔCUB2-HA (UniProt Q8BNJ6); assay: co-IP

In the case of “FLAG-GluK2 (from UniProt P42260 32-908) (receptor)”, the amount of GluK2 co-immunoprecipitated, percent of full length Neto1 (Neto1-ΔCUB2-HA) was 39% and the amount of GluK2 co-immunoprecipitated, percent of full length Neto2 (Neto2-ΔCUB2-HA) was 33%.

Source: article PMC3148853
